{"source": "patent US20210292396A1", "assay_in_all_cases": "cell-based or functional assay", "key": {"[1]": {"target": "HIV Env of isolate AC10.0.29 (HIV)"}, "[2]": {"target": "HIV Env of isolate Ce1172_H1 (HIV)"}, "[3]": {"target": "HIV Env of isolate ZM109F.PB4 (HIV)"}, "[4]": {"target": "HIV Env of isolate CNE17 (HIV)"}, "[5]": {"target": "HIV Env of isolate TRO.11 (HIV)"}, "[6]": {"target": "HIV Env of isolate 6811.v7.c18 (HIV)"}, "[7]": {"target": "HIV Env of isolate T255-34 (HIV)"}, "[8]": {"target": "HIV Env of isolate ZM53M.PB12 (HIV)"}, "[9]": {"target": "HIV Env of isolate Du172.17 (HIV)"}, "[10]": {"target": "HIV Env of isolate QH0692.42 (HIV)"}, "[11]": {"target": "HIV Env of isolate 7030102001E5(Rev-) (HIV)"}, "[12]": {"target": "HIV Env of isolate ZM247v1(Rev-) (HIV)"}, "[13]": {"target": "HIV Env of isolate 0815.v3.c3 (HIV)"}, "[14]": {"target": "HIV Env of isolate 6244_13_B5_4576 (HIV)"}, "[15]": {"target": "HIV Env of isolate WITO4160.33 (HIV)"}, "[16]": {"target": "HIV Env of isolate HIV-0013095-2.11 (HIV)"}, "[17]": {"target": "HIV Env of isolate CNE52 (HIV)"}, "[18]": {"target": "HIV Env of isolate SC422661.8 (HIV)"}, "[19]": {"target": "HIV Env of isolate T251-18 (HIV)"}, "[20]": {"target": "HIV Env of isolate T211-9 (HIV)"}, "[21]": {"target": "HIV Env of isolate Du422.1 (HIV)"}, "[22]": {"target": "HIV Env of isolate 249M_B10 (HIV)"}, "[23]": {"target": "HIV Env of isolate X1193_c1 (HIV)"}, "[24]": {"target": "HIV Env of isolate 1054_07_TC4_1499 (HIV)"}, "[25]": {"target": "HIV Env of isolate X1254_c3 (HIV)"}, "[26]": {"target": "HIV Env of isolate P1981_C5_3 (HIV)"}, "[27]": {"target": "HIV Env of isolate Ce704809221_1B3 (HIV)"}, "[28]": {"target": "HIV Env of isolate SC05_8C11_2344 (HIV)"}, "[29]": {"target": "HIV Env of isolate 62357_14_D3_4589 (HIV)"}, "[30]": {"target": "HIV Env of isolate 1394C9G1(Rev-) (HIV)"}, "[31]": {"target": "HIV Env of isolate 6535.3 (HIV)"}, "[32]": {"target": "HIV Env of isolate WEAU_d15_410_5017 (HIV)"}}, "note": "“And” between values parts separate entries of the source, which are not always exact repeats. Equal entries are not always repeated."}
{"binder": "ePGT121.15.H2.L1 (antibody, V domains shown) VH: QMQLQESGPGLVKPGETLSLTCSVSGASISSSYWSWLRETPGKGLEWIGYTHHSGDTNYAPSLKSRVHLGLHPSKNQVSLSLTSVTAADTAVYYCARTLHGRRIYGVVAFNEWFTYFYWEVWGKGTQVTVSS VL: SDISVAPGETVRISCGGESIGSRAVQWYQHRAGQAPKLIIYNNQDRPPGIPERFSGSPDIDFGTTATLTITNVEAGDEATYYCHIWDSRRPTNWVFGGGTTLTVL", "values": [{"measurement": "neutralization (Table 6 value)", "setting": "[1]", "value": 0.00196}, {"measurement": "neutralization (Table 6 value)", "setting": "[2]", "value": 0.000582}, {"measurement": "neutralization (Table 6 value)", "setting": "[3]", "value": 0.873}, {"measurement": "neutralization (Table 6 value)", "setting": "[4]", "value": 0.00577}, {"measurement": "neutralization (Table 6 value)", "setting": "[5]", "value": 0.00115}, {"measurement": "neutralization (Table 6 value)", "setting": "[6]", "value": 0.00194}, {"measurement": "neutralization (Table 6 value)", "setting": "[7]", "value": "0.00375 and 0.00245"}, {"measurement": "neutralization (Table 6 value)", "setting": "[8]", "value": 0.00177}, {"measurement": "neutralization (Table 6 value)", "setting": "[9]", "value": 0.000836}, {"measurement": "neutralization (Table 6 value)", "setting": "[10]", "value": 0.0116}, {"measurement": "neutralization (Table 6 value)", "setting": "[11]", "value": 0.00197}, {"measurement": "neutralization (Table 6 value)", "setting": "[12]", "value": 0.000909}, {"measurement": "neutralization (Table 6 value)", "setting": "[13]", "value": 0.000394}, {"measurement": "neutralization (Table 6 value)", "setting": "[14]", "value": 0.00689}, {"measurement": "neutralization (Table 6 value)", "setting": "[15]", "value": "0.00428 and 0.00241"}, {"measurement": "neutralization (Table 6 value)", "setting": "[16]", "value": 0.698}, {"measurement": "neutralization (Table 6 value)", "setting": "[17]", "value": 0.0469}, {"measurement": "neutralization (Table 6 value)", "setting": "[18]", "value": 0.00145}, {"measurement": "neutralization (Table 6 value)", "setting": "[19]", "value": 0.0252}, {"measurement": "neutralization (Table 6 value)", "setting": "[20]", "value": 0.00508}, {"measurement": "neutralization (Table 6 value)", "setting": "[21]", "value": 0.00326}, {"measurement": "neutralization (Table 6 value)", "setting": "[22]", "value": 0.00271}, {"measurement": "neutralization (Table 6 value)", "setting": "[23]", "value": 0.000174}, {"measurement": "neutralization (Table 6 value)", "setting": "[24]", "value": 0.00114}, {"measurement": "neutralization (Table 6 value)", "setting": "[25]", "value": 0.00235}, {"measurement": "neutralization (Table 6 value)", "setting": "[26]", "value": 0.000449}, {"measurement": "neutralization (Table 6 value)", "setting": "[27]", "value": 0.00143}, {"measurement": "neutralization (Table 6 value)", "setting": "[28]", "value": 0.00664}, {"measurement": "neutralization (Table 6 value)", "setting": "[29]", "value": 0.0109}, {"measurement": "neutralization (Table 6 value)", "setting": "[30]", "value": 0.00203}, {"measurement": "neutralization (Table 6 value)", "setting": "[31]", "value": 0.00104}, {"measurement": "neutralization (Table 6 value)", "setting": "[32]", "value": 0.00168}]}
